Results as given in the supplement of paper PMC5998384.

Columns and labels:
[1] = system: HeLa Kyoto; test: melting temperature (median over replicates), in situ; higher = more thermally stable
[2] = system: HeLa Kyoto; test: thermal stability score vs G1/S (z-score of summed log2 fold changes over temperatures); higher = more thermally stable than in G1/S
[3] = system: HeLa Kyoto; test: solubility change mitosis vs G1/S (difference of NP-40 vs SDS log2 ratios) (log2 ratio difference); higher = more soluble in mitosis
[4] = system: HeLa Kyoto; test: solubility in G1/S (NP-40 vs SDS abundance) (log2 ratio); higher = more soluble; conditions: cell cycle stage: G1/S
[5] = cell cycle stage: early G1 (4.5 h after nocodazole release)
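Wherever melting temperature (median over replicates), in situ is given: HeLa Kyoto cells synchronized by double thymidine or nocodazole block, proteins quantified by TMT10plex mass spectrometry, three independent biological replicates.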
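Wherever solubility change mitosis vs G1/S (difference of NP-40 vs SDS log2 ratios) is given: synchronized HeLa Kyoto cells (double thymidine block for G1/S, nocodazole release for mitosis), protein amounts in NP-40 versus SDS lysates quantified by mass spectrometry, three biological replicates.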
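Wherever solubility in G1/S (NP-40 vs SDS abundance) is given: HeLa Kyoto cells arrested at G1/S by double thymidine block, proteins quantified by TMT10plex mass spectrometry in mild NP-40 versus SDS extracts, three biological replicates.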
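Wherever thermal stability score vs G1/S (z-score of summed log2 fold changes over temperatures) is given: synchronized HeLa Kyoto cells, proteins quantified by TMT10plex mass spectrometry, three biological replicates, mitosis taken 0.5 h after nocodazole release, G1/S directly after double thymidine block.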

Row | Substance | melting temperature ([1]; cell cycle stage: G1/S) | melting temperature ([1]; cell cycle stage: mitosis) | thermal stability score [2, 5] | thermal stability score ([2]; cell cycle stage: mitosis) | solubility change mitosis (log2) [3] | solubility in G1/S (log2) [4]
1 | MALKMVKGSIDRMFDKNLQDLVRGIRNHKEDEAKYISQCIDEIKQELKQDNIAVKANAVCKLTYLQMLGYDISWAAFNIIEVMSASKFTFKRIGYLAASQSFHEGTDVIMLTTNQIRKDLSSPSQYDTGVALTGLSCFVTPDLARDLANDIMTLMSHTKPYIRKKAVLIMYKVFLKYPESLRPAFPRLKEKLEDPDPGVQSAAVNVICELARRNPKNYLSLAPLFFKLMTSSTNNWVLIKIIKLFGALTPLEPRLGKKLIEPLTNLIHSTSAMSLLYECVNTVIAVLISLSSGMPNHSASIQLCVQKLRILIEDSDQNLKYLGLLAMSKILKTHPKSVQSHKDLILQCLDDKDESIRLRALDLLYGMVSKKNLMEIVKKLMTHVDKAEGTTYRDELLTKIIDICSQSNYQYITNFEWYISILVELTRLEGTRHGHLIAAQMLDVAIRVKAIRKFAVSQMSALLDSAHLLASSTQRNGICEVLYAAAWICGEFSEHLQEPHHTLEAMLRPRVTTLPGHIQAVYVQNVVKLYASILQQKEQAGEAEGAQAVTQLMVDRLPQFVQSADLEVQERASCILQLVKHIQKLQAKDVPVAEEVSALFAGELNPVAPKAQKKVPVPEGLDLDAWINEPLSDSESEDERPRAVFHEEEQRRPKHRPSEADEEELARRREARKQEQANNPFYIKSSPSPQKRYQDTPGVEHIPVVQIDLSVPLKVPGLPMSDQYVKLEEERRHRQKLEKDKRRKKRKEKEKKGKRRHSSLPTESDEDIAPAQQVDIVTEEMPENALPSDEDDKDPNDPYRALDIDLDKPLADSEKLPIQKHRNTETSKSPEKDVPMVEKKSKKPKKKEKKHKEKERDKEKKKEKEKKKSPKPKKKKHRKEKEERTKGKKKSKKQPPGSEEAAGEPVQNGAPEEEQLPPESSYSLLAENSYVKMTCDIRGSLQEDSQVTVAIVLENRSSSILKGMELSVLDSLNARMARPQGSSVHDGVPVPFQLPPGVSNEAQYVFTIQSIVMAQKLKGTLSFIAKNDEGATHEKLDFRLHFSCSSYLITTPCYSDAFAKLLESGDLSMSSIKVDGIRMSFQNLLAKICFHHHFSVVERVDSCASMYSRSIQGHHVCLLVKKGENSVSVDGKCSDSTLLSNLLEEMKATLAKC [AP3D1] | 50.8 °C | 50.6 °C | -1.02 | -1.46 | -0.178 | -0.378
2 | MALSRGLPRELAEAVAGGRVLVVGAGGIGCELLKNLVLTGFSHIDLIDLDTIDVSNLNRQFLFQKKHVGRSKAQVAKESVLQFYPKANIVAYHDSIMNPDYNVEFFRQFILVMNALDNRAARNHVNRMCLAADVPLIESGTAGYLGQVTTIKKGVTECYECHPKPTQRTFPGCTIRNTPSEPIHCIVWAKYLFNQLFGEEDADQEVSPDRADPEAAWEPTEAEARARASNEDGDIKRISTKEWAKSTGYDPVKLFTKLFKDDIRYLLTMDKLWRKRKPPVPLDWAEVQSQGEETNASDQQNEPQLGLKDQQVLDVKSYARLFSKSIETLRVHLAEKGDGAELIWDKDDPSAMDFVTSAANLRMHIFSMNMKSRFDIKSMAGNIIPAIATTNAVIAGLIVLEGLKILSGKIDQCRTIFLNKQPNPRKKLLVPCALDPPNPNCYVCASKPEVTVRLNVHKVTVLTLQDKIVKEKFAMVAPDVQIEDGKGTILISSEEGETEANNHKKLSEFGIRNGSRLQADDFLQDYTLLINILHSEDLGKDVEFEVVGDAPEKVGPKQAEDAAKSITNGSDDGAQPSTSTAQEQDDVLIVDSDEEDSSNNADVSEEERSRKRKLDEKENLSAKRSRIEQKEELDDVIALD [UBA2] | 52.2 °C | 52 °C | -0.2 | 0.883 | -0.204 | 0.146
3 | MAAAAKPNNLSLVVHGPGDLRLENYPIPEPGPNEVLLRMHSVGICGSDVHYWEYGRIGNFIVKKPMVLGHEASGTVEKVGSSVKHLKPGDRVAIEPGAPRENDEFCKMGRYNLSPSIFFCATPPDDGNLCRFYKHNAAFCYKLPDNVTFEEGALIEPLSVGIHACRRGGVTLGHKVLVCGAGPIGMVTLLVAKAMGAAQVVVTDLSATRLSKAKEIGADLVLQISKESPQEIARKVEGQLGCKPEVTIECTGAEASIQAGIYATRSGGNLVLVGLGSEMTTVPLLHAAIREVDIKGVFRYCNTWPVAISMLASKSVNVKPLVTHRFPLEKALEAFETFKKGLGLKIMLKCDPSDQNP [SORD] | 58.1 °C | 57 °C | -2.25 | -1.12 | -0.109 | 0.184
4 | ASL | 51.4 °C | 52.1 °C | 3.02 | 4.07 | 0.00521 | -0.0391
5 | MPPAVGGPVGYTPPDGGWGWAVVIGAFISIGFSYAFPKSITVFFKEIEGIFHATTSEVSWISSIMLAVMYGGGPISSILVNKYGSRIVMIVGGCLSGCGLIAASFCNTVQQLYVCIGVIGGLGLAFNLNPALTMIGKYFYKRRPLANGLAMAGSPVFLCTLAPLNQVFFGIFGWRGSFLILGGLLLNCCVAGALMRPIGPKPTKAGKDKSKASLEKAGKSGVKKDLHDANTDLIGRHPKQEKRSVFQTINQFLDLTLFTHRGFLLYLSGNVIMFFGLFAPLVFLSSYGKSQHYSSEKSAFLLSILAFVDMVARPSMGLVANTKPIRPRIQYFFAASVVANGVCHMLAPLSTTYVGFCVYAGFFGFAFGWLSSVLFETLMDLVGPQRFSSAVGLVTIVECCPVLLGPPLLGRLNDMYGDYKYTYWACGVVLIISGIYLFIGMGINYRLLAKEQKANEQKKESKEEETSIDVAGKPNEVTKAAESPDQKDTDGGPKEEESPV [SLC16A1] | 55 °C | 57 °C | -4.15 | -10.4 | -0.115 | 0.186
6 | MAACGRVRRMFRLSAALHLLLLFAAGAEKLPGQGVHSQGQGPGANFVSFVGQAGGGGPAGQQLPQLPQSSQLQQQQQQQQQQQQPQPPQPPFPAGGPPARRGGAGAGGGWKLAEEESCREDVTRVCPKHTWSNNLAVLECLQDVREPENEISSDCNHLLWNYKLNLTTDPKFESVAREVCKSTITEIKECADEPVGKGYMVSCLVDHRGNITEYQCHQYITKMTAIIFSDYRLICGFMDDCKNDINILKCGSIRLGEKDAHSQGEVVSCLEKGLVKEAEEREPKIQVSELCKKAILRVAELSSDDFHLDRHLYFACRDDRERFCENTQAGEGRVYKCLFNHKFEESMSEKCREALTTRQKLIAQDYKVSYSLAKSCKSDLKKYRCNVENLPRSREARLSYLLMCLESAVHRGRQVSSECQGEMLDYRRMLMEDFSLSPEIILSCRGEIEHHCSGLHRKGRTLHCLMKVVRGEKGNLGMNCQQALQTLIQETDPGADYRIDRALNEACESVIQTACKHIRSGDPMILSCLMEHLYTEKMVEDCEHRLLELQYFISRDWKLDPVLYRKCQGDASRLCHTHGWNETSEFMPQGAVFSCLYRHAYRTEEQGRRLSRECRAEVQRILHQRAMDVKLDPALQDKCLIDLGKWCSEKTETGQELECLQDHLDDLVVECRDIVGNLTELESEDIQIEALLMRACEPIIQNFCHDVADNQIDSGDLMECLIQNKHQKDMNEKCAIGVTHFQLVQMKDFRFSYKFKMACKEDVLKLCPNIKKKVDVVICLSTTVRNDTLQEAKEHRVSLKCRRQLRVEELEMTEDIRLEPDLYEACKSDIKNFCSAVQYGNAQIIECLKENKKQLSTRCHQKVFKLQETEMMDPELDYTLMRVCKQMIKRFCPEADSKTMLQCLKQNKNSELMDPKCKQMITKRQITQNTDYRLNPMLRKACKADIPKFCHGILTKAKDDSELEGQVISCLKLRYADQRLSSDCEDQIRIIIQESALDYRLDPQLQLHCSDEISSLCAEEAAAQEQTGQVEECLKVNLLKIKTELCKKEVLNMLKESKADIFVDPVLHTACALDIKHHCAAITPGRGRQMSCLMEALEDKRVRLQPECKKRLNDRIEMWSYAAKVAPADGFSDLAMQVMTSPSKNYILSVISGSICILFLIGLMCGRITKRVTRELKDR [GLG1] | 56.3 °C | 56.5 °C | -1.04 | -1.91 | -0.0491 | -0.0893
7 | MLPGLAAAAAHRCSWSSLCRLRLRCRAAACNPSDRQEWQNLVTFGSFSNMVPCSHPYIGTLSQVKLYSTNVQKEGQGSQTLRVEKVPSFETAEGIGTELKAPLKQEPLQVRVKAVLKKREYGSKYTQNNFITGVRAINEFCLKSSDLEQLRKIRRRSPHEDTESFTVYLRSDVEAKSLEVWGSPEALAREKKLRKEAEIEYRERLFRNQKILREYRDFLGNTKPRSRTASVFFKGPGKVVMVAICINGLNCFFKFLAWIYTGSASMFSEAIHSLSDTCNQGLLALGISKSVQTPDPSHPYGFSNMRYISSLISGVGIFMMGAGLSWYHGVMGLLHPQPIESLLWAYCILAGSLVSEGATLLVAVNELRRNARAKGMSFYKYVMESRDPSTNVILLEDTAAVLGVIIAATCMGLTSITGNPLYDSLGSLGVGTLLGMVSAFLIYTNTEALLGRSIQPEQVQRLTELLENDPSVRAIHDVKATDLGLGKVRFKAEVDFDGRVVTRSYLEKQDFDQMLQEIQEVKTPEELETFMLKHGENIIDTLGAEVDRLEKELKKRNPEVRHVDLEIL [SLC30A9] | 51.1 °C | 51.9 °C | -0.0363 | -0.00857 | -0.0502 | -0.0134
8 | MPSKKKKYNARFPPARIKKIMQTDEEIGKVAAAVPVIISRALELFLESLLKKACQVTQSRNAKTMTTSHLKQCIELEQQFDFLKDLVASVPDMQGDGEDNHMDGDKGARRGRKPGSGGRKNGGMGTKSKDKKLSGTDSEQEDESEDTDTDGEEETSQPPPQASHPSAHFQSPPTPFLPFASTLPLPPAPPGPSAPDEEDEEDYDS [DRAP1] | 56.9 °C | 55.7 °C | -2.19 | -2.89 | 0.215 | 0.748
9 | MDLRQFLMCLSLCTAFALSKPTEKKDRVHHEPQLSDKVHNDAQSFDYDHDAFLGAEEAKTFDQLTPEESKERLGKIVSKIDGDKDGFVTVDELKDWIKFAQKRWIYEDVERQWKGHDLNEDGLVSWEEYKNATYGYVLDDPDPDDGFNYKQMMVRDERRFKMADKDGDLIATKEEFTAFLHPEEYDYMKDIVVQETMEDIDKNADGFIDLEEYIGDMYSHDGNTDEPEWVKTEREQFVEFRDKNRDGKMDKEETKDWILPSDYDHAEAEARHLVYESDQNKDGKLTKEEIVDKYDLFVGSQATDFGEALVRHDEF [CALU] | 57.8 °C | 60.3 °C | 1.04 | -0.549 | 0.167 | 0.281
10 | MRFLAATFLLLALSTAAQAEPVQFKDCGSVDGVIKEVNVSPCPTQPCQLSKGQSYSVNVTFTSNIQSKSSKAVVHGILMGVPVPFPIPEPDGCKSGINCPIQKDKTYSYLNKLPVKSEYPSIKLVVEWQLQDDKNQSLFCWEIPVQIVSHL [NPC2] | 58.9 °C | 53.4 °C | -3.22 | -2.19 | 0.0342 | 0.123
11 | MALAARLWRLLPFRRGAAPGSRLPAGTSGSRGHCGPCRFRGFEVMGNPGTFKRGLLLSALSYLGFETYQVISQAAVVHATAKVEEILEQADYLYESGETEKLYQLLTQYKESEDAELLWRLARASRDVAQLSRTSEEEKKLLVYEALEYAKRALEKNESSFASHKWYAICLSDVGDYEGIKAKIANAYIIKEHFEKAIELNPKDATSIHLMGIWCYTFAEMPWYQRRIAKMLFATPPSSTYEKALGYFHRAEQVDPNFYSKNLLLLGKTYLKLHNKKLAAFWLMKAKDYPAHTEEDKQIQTEAAQLLTSFSEKN [RMDN1] | 52 °C | 52.9 °C | -0.229 | -1.17 | 0.0519 | 0.16
